According to article PMC5499551:
Read-outs that look alike come from different tables or passages of the source.

Legend:
Assay in all cases: EMSA
SOX9 [1] = molecular target: T1, SOX9 (UniProt P48436 1-509)
DMRT1 = DMRT1 (mouse, UniProt Q9QZ59 1-374)
GATA4 = GATA4 (mouse, UniProt Q08369 1-441)
SOX9 [2] = molecular target: T1, SOX9; remark: listed apart in the source

T1 sequence (P48436 whole entry): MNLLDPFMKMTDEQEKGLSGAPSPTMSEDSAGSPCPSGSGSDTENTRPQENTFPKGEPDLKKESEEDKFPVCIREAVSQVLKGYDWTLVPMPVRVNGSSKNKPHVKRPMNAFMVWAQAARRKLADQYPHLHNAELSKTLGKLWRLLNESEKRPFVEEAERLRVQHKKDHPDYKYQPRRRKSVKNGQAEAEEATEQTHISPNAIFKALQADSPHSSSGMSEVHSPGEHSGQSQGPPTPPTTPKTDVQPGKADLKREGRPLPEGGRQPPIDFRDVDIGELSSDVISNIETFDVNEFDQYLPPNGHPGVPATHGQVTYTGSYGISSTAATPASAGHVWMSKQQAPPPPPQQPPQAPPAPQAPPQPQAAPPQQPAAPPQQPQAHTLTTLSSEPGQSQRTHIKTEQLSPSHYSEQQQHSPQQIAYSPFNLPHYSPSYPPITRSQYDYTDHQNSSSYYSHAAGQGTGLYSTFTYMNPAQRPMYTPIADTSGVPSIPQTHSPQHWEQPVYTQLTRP
DMRT1, sequence (Q9QZ59 whole entry): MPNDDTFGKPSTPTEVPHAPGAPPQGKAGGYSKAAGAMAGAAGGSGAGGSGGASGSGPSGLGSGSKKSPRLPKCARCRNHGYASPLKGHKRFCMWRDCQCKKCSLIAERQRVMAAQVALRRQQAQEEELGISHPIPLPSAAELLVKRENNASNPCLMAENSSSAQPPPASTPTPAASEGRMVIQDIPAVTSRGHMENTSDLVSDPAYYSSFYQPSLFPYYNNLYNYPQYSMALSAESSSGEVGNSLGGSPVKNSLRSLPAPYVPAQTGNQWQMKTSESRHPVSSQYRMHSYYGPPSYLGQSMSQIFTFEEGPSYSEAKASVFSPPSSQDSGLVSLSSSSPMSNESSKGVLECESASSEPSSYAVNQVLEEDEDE
GATA4, sequence (Q08369 whole entry): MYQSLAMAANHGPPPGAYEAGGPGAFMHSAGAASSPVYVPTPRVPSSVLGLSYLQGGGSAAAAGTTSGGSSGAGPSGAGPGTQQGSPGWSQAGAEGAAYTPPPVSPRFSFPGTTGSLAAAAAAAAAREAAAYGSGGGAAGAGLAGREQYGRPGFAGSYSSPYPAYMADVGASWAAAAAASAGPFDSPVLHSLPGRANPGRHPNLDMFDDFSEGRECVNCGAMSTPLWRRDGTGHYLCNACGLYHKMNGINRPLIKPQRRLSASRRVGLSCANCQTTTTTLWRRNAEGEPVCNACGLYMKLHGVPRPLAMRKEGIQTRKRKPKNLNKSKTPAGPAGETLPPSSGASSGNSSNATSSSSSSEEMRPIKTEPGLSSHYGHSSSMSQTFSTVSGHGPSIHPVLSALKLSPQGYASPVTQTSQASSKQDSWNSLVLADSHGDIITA

Row | Binder | binding result (SOX9 [1]) | binding result (DMRT1) | binding result (GATA4) | binding result (SOX9 [2])
1 | Mrpl45 (dsDNA) DNA 1: GGGTTTTTTTCACCGATTGTAAATAAGGTGTAACAATGTGTTAAGGAACCAGGA DNA 2: TCCTGGTTCCTTAACACATTGTTACACCTTATTTACAATCGGTGAAAAAAACCC | binds | binds | binds | –
2 | Lats2 (dsDNA) DNA 1: GGCCGAGCGGGACATTCGCTACATTGTTGGCATTCCACGGGCG DNA 2: CGCCCGTGGAATGCCAACAATGTAGCGAATGTCCCGCTCGGCC | – | binds | no binding | binds
3 | Lmo4 (dsDNA) DNA 1: GGCATCTCCCATTATTGTTCCAAATCTCATTTCATTTTGAA DNA 2: TTCAAAATGAAATGAGATTTGGAACAATAATGGGAGATGCC | binds | no binding | binds | –
